{
  "source": "paper PMC11407943",
  "about": "“Cdc14 phosphatases use an intramolecular pseudosubstrate motif to stimulate and regulate catalysis” (The Journal of Biological Chemistry, 2024)",
  "molecules": {"B1": {"name": "ScCdc14^S429E (protein, UniProt Q00684 1-551, looked up, variant S429E)", "Tyrosine-protein phosphatase …": "MRRSVYLDNTIEFLRGRVYLGAYDYTPEDTDELVFFTVEDAIFYNSFHLDFGPMNIGHLYRFAVIFHEILNDPENANKAVVFYSSASTRQRANAACMLCCYMILVQAWTPHQVLQPLAQVDPPFMPFRDAGYSNADFEITIQDVVYGVWRAKEKGLIDLHSFNLESYEKYEHVEFGDFNVLTPDFIAFASPQEDHPKGYLATKSSHLNQPFKSVLNFFANNNVQLVVRLNSHLYNKKHFEDIGIQHLDLIFEDGTCPDLSIVKNFVGAAETIIKRGGKIAVHCKAGLGRTGCLIGAHLIYTYGFTANECIGFLRFIRPGMVVGPQQHWLYLHQNDFREWKYTTRISLKPSEAIGGLYPLISLEEYRLQKKKLKDDKRVAQNNIEGELRDLTMTPPSNGHGALSARNSSQPSTANNGSNSFKSSAVPQTEPGQPRKGQNGSNTIEDINNNRNPTSHANRKVVIESNNSDDESMQDTNGTSNHYPKVSRKKNDISSASSSRMEDNEPSATNINNAADDTILRQLLPKNRRVTSGRRTTSAAGGIRKISGSIKK"}, "B2": {"name": "ScCdc14^1-449: truncation of S. cerevisiae Cdc14 that retains the SLiCE motif (protein)", "chain": "MRRSVYLDNTIEFLRGRVYLGAYDYTPEDTDELVFFTVEDAIFYNSFHLDFGPMNIGHLYRFAVIFHEILNDPENANKAVVFYSSASTRQRANAACMLCCYMILVQAWTPHQVLQPLAQVDPPFMPFRDAGYSNADFEITIQDVVYGVWRAKEKGLIDLHSFNLESYEKYEHVEFGDFNVLTPDFIAFASPQEDHPKGYLATKSSHLNQPFKSVLNFFANNNVQLVVRLNSHLYNKKHFEDIGIQHLDLIFEDGTCPDLSIVKNFVGAAETIIKRGGKIAVHCKAGLGRTGCLIGAHLIYTYGFTANECIGFLRFIRPGMVVGPQQHWLYLHQNDFREWKYTTRISLKPSEAIGGLYPLISLEEYRLQKKKLKDDKRVAQNNIEGELRDLTMTPPSNGHGALSARNSSQPSTANNGSNSFKSSAVPQTSPGQPRKGQNGSNTIEDINNN", "modifications": "left off: 6xHis, N-terminal, state not stated"}, "B3": {"name": "ScCdc14^P433A/K435A: SLiCE motif point mutant generated in ScCdc14^1-449 (protein)", "chain": "MRRSVYLDNTIEFLRGRVYLGAYDYTPEDTDELVFFTVEDAIFYNSFHLDFGPMNIGHLYRFAVIFHEILNDPENANKAVVFYSSASTRQRANAACMLCCYMILVQAWTPHQVLQPLAQVDPPFMPFRDAGYSNADFEITIQDVVYGVWRAKEKGLIDLHSFNLESYEKYEHVEFGDFNVLTPDFIAFASPQEDHPKGYLATKSSHLNQPFKSVLNFFANNNVQLVVRLNSHLYNKKHFEDIGIQHLDLIFEDGTCPDLSIVKNFVGAAETIIKRGGKIAVHCKAGLGRTGCLIGAHLIYTYGFTANECIGFLRFIRPGMVVGPQQHWLYLHQNDFREWKYTTRISLKPSEAIGGLYPLISLEEYRLQKKKLKDDKRVAQNNIEGELRDLTMTPPSNGHGALSARNSSQPSTANNGSNSFKSSAVPQTSPGQARAGQNGSNTIEDINNN", "modifications": "left off: 6xHis, N-terminal, state not stated"}, "B4": {"name": "ScCdc14^1-374: catalytic domain alone lacking the SLiCE motif (protein)", "chain": "MRRSVYLDNTIEFLRGRVYLGAYDYTPEDTDELVFFTVEDAIFYNSFHLDFGPMNIGHLYRFAVIFHEILNDPENANKAVVFYSSASTRQRANAACMLCCYMILVQAWTPHQVLQPLAQVDPPFMPFRDAGYSNADFEITIQDVVYGVWRAKEKGLIDLHSFNLESYEKYEHVEFGDFNVLTPDFIAFASPQEDHPKGYLATKSSHLNQPFKSVLNFFANNNVQLVVRLNSHLYNKKHFEDIGIQHLDLIFEDGTCPDLSIVKNFVGAAETIIKRGGKIAVHCKAGLGRTGCLIGAHLIYTYGFTANECIGFLRFIRPGMVVGPQQHWLYLHQNDFREWKYTTRISLKPSEAIGGLYPLISLEEYRLQKKKLKD", "modifications": "left off: 6xHis, N-terminal, state not stated"}},
  "key": {"[1]": {"assay": "Steady-state kinetics of Cdc14 enzyme variants toward DiFMUP", "method": "B, initial velocities as a function of increasing DiFMUP concentration were measured under steady-state conditions for the indicated ScCdc14 variants. […] Data are average values from at least three independent measurements. Error bars are SDs. Lines are best fits for the Michaelis–Menten equation. C, to better visualize differences in KM, all Vmax values from data in panel A were normalized to 1. D, top: the general PTP-catalyzed reaction scheme with associated rate constants ([50]), where E is enzyme, S is phosphorylated substrate, P is dephosphorylated product, Pi is inorganic phosphate, and E-Pi is the covalent phosphoenzyme intermediate. For simplicity, the reverse catalytic steps are omitted and considered negligible under our experimental conditions. Bottom: definitions of kcat and KM for enzymes following the two step PTP reaction mechanism ([47]). E, a representative presteady-state reaction progress graph for reaction of the indicated ScCdc14 enzyme variants with 200 μM DiFMUP, measured in a stopped flow spectrofluorometer. Data were fit with Equation 1 (see Experimental procedures) to generate rates of the burst phase (kburst) of the reaction. F, kburst was plotted as a function of substrate concentration from presteady-state kinetic measurements with the substrate DiFMUP and the indicated ScCdc14 enzyme variants. Data are averages of three independent measurements and error bars are SDs. Data were fit in GraphPad Prism with Equation 2 (Experimental procedures).\nD–E, steady-state kinetic analyses with hCdc14A enzyme variants toward DiFMUP as in Figure 2, B and C. […] In E, Vmax values from data in panel D were normalized to 1 to show differences in KM.\nData from velocity versus substrate concentration plots were fit with the Michaelis–Menten equation in GraphPad Prism (https://www.graphpad.com/) to determine steady-state kinetic parameters kcat and KM. For trans peptide stimulation assays, DiFMUP was used at a single concentration well above the measured KM for each enzyme."}, "[2]": {"conditions": "cited from earlier work", "from_the_text": "To experimentally characterize the SLiCE motif mechanism, we expressed and purified several recombinant ScCdc14 enzyme variants (Figs. 2A and S2A)."}, "[3]": {"assay": "Catalytic efficiency (kcat/KM) on pooled phosphopeptides by LC-MS", "conditions": "375 nM each pooled phosphopeptide, 30 °C, 10 to 40 min; for catalytic efficiency (kcat/KM) for high affinity substrates: enzyme 0.1–1 μM, at least four independent measurements", "method": "Cdc14 catalytic efficiencies toward a pooled set of phosphopeptide variants were measured by LC-MS exactly as described ([49]). […] Reactions were initiated by addition of Cdc14 enzymes (0.1–1 μM final concentration) in 200 μl Cdc14 reaction buffer and incubated at 30 °C for 10 to 40 min 60 μl aliquots were removed and mixed with an equal volume 5% formic acid at desired times to terminate the reactions. Peptides were desalted on C18 spin columns (Thermo Fisher Scientific) and dried by vacuum centrifugation prior to LC-MS analysis on an LTQ Orbitrap Velos mass spectrometer. Extracted ion chromatograms for each substrate and product peptide were generated and integrated using Skyline software ([65]) (https://skyline.ms/project/home/begin.view) and catalytic efficiency calculations from the data were performed as described ([28], [47])."}, "[4]": {"assay": "Presteady-state (stopped-flow) kinetics of Cdc14 enzyme variants with DiFMUP", "type": "biochemical", "conditions": "23 °C, 200 μM DiFMUP in representative ScCdc14 progress curve, compared to ScCdc14^1-449", "procedure": "SLiCE motif is boxed in gray.\nPresteady-state kinetic analysis was performed as described previously ([34]). Enzymes were exchanged into Cdc14 reaction buffer using a desalting column and flash-frozen in liquid nitrogen. Prior to use, aliquots were thawed and clarified at 16,000g for 5 min to remove any insoluble material and protein concentration was subsequently determined by Bradford assay. Presteady-state measurements were made by mixing enzyme and varying DiFMUP concentrations at 23 °C on an SFM-3000 stopped-flow instrument equipped with a MOS-200/M spectrophotometer (BioLogic) as described ([64]). The excitation wavelength was 390-nm and emission was selected using a 409-nm long pass filter (Semrock FF02-409/LP-25). A standard curve was generated by measuring the fluorescence of defined concentrations of the product DiFMU reconstituted in Cdc14 reaction buffer under identical conditions. Raw data were fit with Equation 1 in Prism:(1) Y=At+B(1−e^−bt)+C"}, "[5]": {"conditions": "DiFMUP, pH 7.5, 30 °C, S429 phosphosite mutant series, printed \"(Fig. 6)\" for ScCdc141-449"}},
  "data": [
    {"molecule": "B1", "values": [
      {"measurement": "kcat", "setting": "[1]; [5]", "value": "0.15 ± 0.01", "unit": "s⁻¹"}
    ]},
    {"molecule": "B2", "values": [
      {"measurement": "activity compared with full-length ScCdc14", "setting": "[2]", "value": "indistinguishable from full-length ScCdc14"},
      {"measurement": "catalytic efficiency (kcat/KM) for high affinity substrates", "setting": "[3]", "value": "indistinguishable"},
      {"measurement": "kcat", "setting": "[1]; [5]", "value": "1.71 ± 0.24", "unit": "s⁻¹"}
    ]},
    {"molecule": "B3", "values": [
      {"measurement": "catalytic efficiency (kcat/KM) for low affinity substrates", "setting": "[3]; compared to ScCdc14^1-449", "value": "modest, but consistent and statistically significant, increase in catalytic efficiency"},
      {"measurement": "catalytic efficiency (kcat/KM) for high affinity substrates", "setting": "[3]", "value": "indistinguishable"},
      {"measurement": "postburst linear rate (primarily reflecting k3)", "setting": "[4]", "value": "greatly reduced"},
      {"measurement": "kcat", "setting": "[1]; pH 7.5", "value": "0.27 ± 0.03", "unit": "s⁻¹"}
    ]},
    {"molecule": "B4", "values": [
      {"measurement": "decrease in kcat compared to ScCdc14^1-449", "setting": "[1]; DiFMUP, steady state", "value": 16, "unit": "fold"}
    ]}
  ]
}
